{"source": "patent US20040001848", "key": {"[1]": {"test_system": "recombinant serum albumin"}, "[2]": {"test_system": "myelin basic protein (MBP)"}, "β-casein": {"target": "T1, β-casein (UniProt P02666)", "T1 sequence": "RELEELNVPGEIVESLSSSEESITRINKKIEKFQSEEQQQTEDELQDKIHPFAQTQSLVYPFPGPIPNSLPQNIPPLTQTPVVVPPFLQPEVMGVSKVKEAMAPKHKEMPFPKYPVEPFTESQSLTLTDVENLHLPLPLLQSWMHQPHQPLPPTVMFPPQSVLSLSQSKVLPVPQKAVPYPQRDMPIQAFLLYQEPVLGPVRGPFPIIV"}, "[3]": {"target": "bovine serum albumin (BSA) (UniProt P02769)", "sequence (P02769 25-607)": "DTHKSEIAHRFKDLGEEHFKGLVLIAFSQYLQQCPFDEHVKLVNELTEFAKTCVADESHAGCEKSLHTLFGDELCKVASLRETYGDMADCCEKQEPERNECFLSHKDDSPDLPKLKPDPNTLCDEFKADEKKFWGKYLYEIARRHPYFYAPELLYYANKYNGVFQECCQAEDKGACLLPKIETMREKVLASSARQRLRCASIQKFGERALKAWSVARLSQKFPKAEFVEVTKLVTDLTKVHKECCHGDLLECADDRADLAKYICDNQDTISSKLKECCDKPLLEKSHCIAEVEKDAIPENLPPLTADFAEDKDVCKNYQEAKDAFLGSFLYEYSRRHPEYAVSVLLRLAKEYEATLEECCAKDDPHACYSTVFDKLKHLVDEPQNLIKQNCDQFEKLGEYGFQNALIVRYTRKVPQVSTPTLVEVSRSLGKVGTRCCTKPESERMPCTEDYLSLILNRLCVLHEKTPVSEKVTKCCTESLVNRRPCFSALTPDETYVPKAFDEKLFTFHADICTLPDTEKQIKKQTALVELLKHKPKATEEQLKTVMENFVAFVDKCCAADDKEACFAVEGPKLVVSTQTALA"}, "ovalbumin": {"target": "ovalbumin (UniProt P01012)", "sequence (P01012 2-386)": "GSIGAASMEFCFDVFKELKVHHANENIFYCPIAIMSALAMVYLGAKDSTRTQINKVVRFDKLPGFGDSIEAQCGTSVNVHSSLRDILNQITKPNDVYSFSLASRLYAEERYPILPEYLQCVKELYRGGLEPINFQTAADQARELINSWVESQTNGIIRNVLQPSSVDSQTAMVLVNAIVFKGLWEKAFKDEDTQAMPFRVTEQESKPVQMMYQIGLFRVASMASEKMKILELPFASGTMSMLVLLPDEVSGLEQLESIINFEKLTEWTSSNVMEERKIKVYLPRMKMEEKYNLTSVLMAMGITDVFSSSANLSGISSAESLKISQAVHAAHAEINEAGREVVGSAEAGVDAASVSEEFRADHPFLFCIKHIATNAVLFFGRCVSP"}}}
{"substance": "recombinant 6×-His-TGase fusion protein of Streptomyces mobaraensis ATCC 29032", "values": [{"measurement": "cross-linking of recombinant serum albumin on SDS-PAGE", "setting": "[1]", "result": "revealed a mixture of very high molecular weight polymers of different length"}, {"measurement": "cross-linking of native protein", "setting": "[2]", "result": "there was no cross-linking"}, {"measurement": "cross-linking of native protein", "setting": "histone H3 protein", "result": "there was no cross-linking"}, {"measurement": "cross-linking of native protein on SDS-PAGE", "setting": "histone H3 protein", "result": "complete and partial cross-linking was both observed for native histine H3 protein under the condition tested"}, {"measurement": "cross-linking of a mixture of β-casein and glucose oxidase on SDS-PAGE", "setting": "β-casein", "result": "both protein species can be cross-linked by the purified recombinant SM TGase"}, {"measurement": "cross-linking of β-casein on SDS-PAGE", "setting": "β-casein", "result": "the cross-linked (CL) β-casein migrated as a smear on the SDS-PAGE gel indicating a mixture of high molecular weight polymers of different length"}, {"measurement": "cross-linking of β-casein on SDS-PAGE, 0 mM DTT", "setting": "β-casein", "result": "had no cross-linking activity on β-casein"}, {"measurement": "cross-linking of β-casein on SDS-PAGE, about 2 mM DTT", "setting": "β-casein", "result": "β-casein run as a mixture of cross-linked polymer and monomer"}, {"measurement": "cross-linking of β-casein on SDS-PAGE, about 10 mM DTT", "setting": "β-casein", "result": "cross-linking of all detectable β-casein substrates in the reaction"}, {"measurement": "cross-linking of native protein", "setting": "[3]", "result": "there was no cross-linking"}, {"measurement": "cross-linking of native protein", "setting": "ovalbumin", "result": "there was no cross-linking"}, {"measurement": "cross-linking of β-amyloid (1-42) peptide on SDS-PAGE, 1 to 3 hours", "setting": "β-amyloid peptide (1-42)", "result": "can be cross-linked by the recombinant transglutaminase as shown as a smear of a mixture of cross-linked peptides"}, {"measurement": "cross-linking of BSA5 peptide on SDS-PAGE", "setting": "BSA5 peptide", "result": "increased amount of recombinant SM TGase corresponding to an increase in cross-linked (CL) BSA5 peptide"}]}
